We go through one protein from PMC5454378, “Histone deacetylase 10 structure and molecular function as a polyamine deacetylase” (Nature Communications, 2017).

Substrate in this data set: CC(=O)NCCCC[C@H](NC(=O)[C@H](C)NC(=O)CNC(C)=O)C(=O)Nc1ccc2c(C)cc(=O)oc2c1
The experiment in a line: purified protein, by the assay type. The arrangement: fluorogenic AMC-conjugated acetyllysine peptide deacetylation, steady-state kinetics. The text has this:
To determine steady-state kinetic parameters for the hydrolysis of a variety of acetylpolyamine and acetyllysine substrates, we prepared full-length recombinant HDAC10 from human (H. sapiens, hHDAC10) and zebrafish (D. rerio, zHDAC10). The CDs of these orthologues are highly similar based on 63%/79% sequence identity/similarity; only full-length constructs yielded soluble proteins. We first assayed the lysine deacetylase activity of these constructs against two commercially available aminomethylcoumarin (AMC)-conjugated fluorogenic acetyllysine peptides, GAK(ac)-AMC and RGK(ac)-AMC (molecular structures of all substrates are shown in Supplementary Fig. 2). […] These measurements were consistent with earlier studies reporting that HDAC10 activity was not measurable using fluorogenic peptide substrates. We also tested activity with 11 non-fluorogenic acetyllysine substrates using a […] chromatography–mass spectrometry (LC–MS)-based discontinuous assay[17] to avoid potential steric clashes that might occur with the bulky AMC group. These substrates included K(ac)NL and GAK(ac)NLQ, which mimic the peptide segment containing K73 in the proposed HDAC10 substrate MutS homologue 2 (MSH2)[22]. Again, we observed no or very low catalytic activity (Fig. 2 and Supplementary Table 1). In comparison with its closest relative, the cytosolic isozyme HDAC6 (ref. [17]), HDAC10 was clearly not an efficient lysine deacetylase.

B1: hHDAC6 CD12 (Homo sapiens) (protein)
chain: MTSTGQDSTTTRQRRSRQNPQSPPQDSSVTSKRNIKKGAVPRSIPNLAEVKKKGKMKKLGQAMEEDLIVGLQGMDLNLEAEALAGTGLVLDEQLNEFHCLWDDSFPEGPERLHAIKEQLIQEGLLDRCVSFQARFAEKEELMLVHSLEYIDLMETTQYMNEGELRVLADTYDSVYLHPNSYSCACLASGSVLRLVDAVLGAEIRNGMAIIRPPGHHAQHSLMDGYCMFNHVAVAARYAQQKHRIRRVLIVDWDVHHGQGTQFTFDQDPSVLYFSIHRYEQGRFWPHLKASNWSTTGFGQGQGYTINVPWNQVGMRDADYIAAFLHVLLPVALEFQPQLVLVAAGFDALQGDPKGEMAATPAGFAQLTHLLMGLAGGKLILSLEGGYNLRALAEGVSASLHTLLGDPCPMLESPGAPCRSAQASVSCALEALEPFWEVLVRSTETVERDNMEEDNVEESEEEGPWEPPVLPILTWPVLQSRTGLVYDQNMMNHCNLWDSHHPEVPQRILRIMCRLEELGLAGRCLTLTPRPATEAELLTCHSAEYVGHLRATEKMKTRELHRESSNFDSIYICPSTFACAQLATGAACRLVEAVLSGEVLNGAAVVRPPGHHAEQDAACGFCFFNSVAVAARHAQTISGHALRILIVDWDVHHGNGTQHMFEDDPSVLYVSLHRYDHGTFFPMGDEGASSQIGRAAGTGFTVNVAWNGPRMGDADYLAAWHRLVLPIAYEFNPELVLVSAGFDAARGDPLGGCQVSPEGYAHLTHLLMGLASGRIILILEGGYNLTSISESMAACTRSLLGDPPPLLTLPRPPLSGALASITETIQVHRRYWRSLRVMKVEDREGPSSSKLVTKKAPQPAKPRLAERMTTREKKVLEAGMGKVTSASFGEESTPGQTNSETAVVALTQDQPSEAATGGATLAQTISEAAIGGAMLGQTTSEEAVGGATPDQTTSEETVGGAILDQTTSEDAVGGATLGQTTSEEAVGGATLAQTTSEAAMEGATLDQTTSEEAPGGTELIQTPLASSTDHQTPPTSPVQGTTPQISPSTLIGSLRTLELGSESQGASESQAPGEENLLGEAAGGQDMADSMLMQGSRGLTDQAIFYAVTPLPWCPHLVAVCPIPAAGLDVTQPCGDCGTIQENWVCLSCYQVYCGRYINGHMLQHHGNSGHPLVLSYIDLSAWCYYCQAYVHHQALLDVKNIAHQNKFGEDMPHPH
notes: both catalytic domains CD1-CD2
Consider B1, for which the Km (in general, the concentration of substrate that gives half-maximal velocity) was 14 ± 2 µM; the kcat (usually the maximal rate divided by the concentration of active sites) came to 0.039 ± 0.007 s⁻¹; the kcat/Km (as a rule, the turnover number divided by the Michaelis constant) was determined as 2800 ± 400 M⁻¹ s⁻¹.
